In paper PMC10095481, “Sequence-Dependent Interaction of the Human Papillomavirus E2 Protein with the DNA Elements on Its DNA Replication Origin”:
Numbering of substitutions follows the chain as printed.

Key:
[1] = molecular target: T1, HPV-11 E2 (full length) (Human papillomavirus type 11, UniProt P04015 1-367); assay: EMSA; spacer experiment WT (TTTT); EMSA: 10 mM HEPES pH 7.9, 50 mM NaCl, 4 mM MgCl2, 10% glycerol, 5 mM DTT, 0.2 mM EDTA, 0.1 mg/mL BSA, 10 ng/uL poly(dI-dC), 10 min 30 C; details: protein: recombinant; tags: N-terminal His (pET28a); chain copies: 2; label: 32P
[2] = molecular target: T1, HPV-11 E2 (full length); assay: EMSA; apparent Kd; EMSA: 10 mM HEPES pH 7.9, 50 mM NaCl, 4 mM MgCl2, 10% glycerol, 5 mM DTT, 0.2 mM EDTA, 0.1 mg/mL BSA, 10 ng/uL poly(dI-dC), 10 min 30 C; details: protein: recombinant; tags: N-terminal His (pET28a); chain copies: 2; label: 32P
[3] = molecular target: T1, HPV-11 E2 (full length); assay: competition; unlabeled competitor vs 32P-BS1; EMSA: 10 mM HEPES pH 7.9, 50 mM NaCl, 4 mM MgCl2, 10% glycerol, 5 mM DTT, 0.2 mM EDTA, 0.1 mg/mL BSA, 10 ng/uL poly(dI-dC), 10 min 30 C; details: protein: recombinant; tags: N-terminal His (pET28a); chain copies: 2; label: 32P
[4] = molecular target: T1, HPV-11 E2 (full length); assay: EMSA; affinity similar to BS1+2; C1, C2 and C3; EMSA: 10 mM HEPES pH 7.9, 50 mM NaCl, 4 mM MgCl2, 10% glycerol, 5 mM DTT, 0.2 mM EDTA, 0.1 mg/mL BSA, 10 ng/uL poly(dI-dC), 10 min 30 C; details: protein: recombinant; tags: N-terminal His (pET28a); chain copies: 2; label: 32P
[5] = molecular target: T1, HPV-11 E2 (full length); assay: EMSA; EMSA: 10 mM HEPES pH 7.9, 50 mM NaCl, 4 mM MgCl2, 10% glycerol, 5 mM DTT, 0.2 mM EDTA, 0.1 mg/mL BSA, 10 ng/uL poly(dI-dC), 10 min 30 C; details: protein: recombinant; tags: N-terminal His (pET28a); chain copies: 2; label: 32P
[6] = molecular target: T1, HPV-11 E2 (full length); assay: EMSA; no complex at 80 nM E2; EMSA: 10 mM HEPES pH 7.9, 50 mM NaCl, 4 mM MgCl2, 10% glycerol, 5 mM DTT, 0.2 mM EDTA, 0.1 mg/mL BSA, 10 ng/uL poly(dI-dC), 10 min 30 C; details: protein: recombinant; tags: N-terminal His (pET28a); chain copies: 2; label: 32P
[7] = molecular target: T1, HPV-11 E2 (full length); assay: EMSA; 0 C; EMSA: 10 mM HEPES pH 7.9, 50 mM NaCl, 4 mM MgCl2, 10% glycerol, 5 mM DTT, 0.2 mM EDTA, 0.1 mg/mL BSA, 10 ng/uL poly(dI-dC), 10 min 30 C; details: protein: recombinant; tags: N-terminal His (pET28a); chain copies: 2; label: 32P
[8] = molecular target: T1, HPV-11 E2 (full length); assay: EMSA; 30 C; EMSA: 10 mM HEPES pH 7.9, 50 mM NaCl, 4 mM MgCl2, 10% glycerol, 5 mM DTT, 0.2 mM EDTA, 0.1 mg/mL BSA, 10 ng/uL poly(dI-dC), 10 min 30 C; details: protein: recombinant; tags: N-terminal His (pET28a); chain copies: 2; label: 32P
[9] = molecular target: T1, HPV-11 E2 (full length); assay: EMSA; 35 C; EMSA: 10 mM HEPES pH 7.9, 50 mM NaCl, 4 mM MgCl2, 10% glycerol, 5 mM DTT, 0.2 mM EDTA, 0.1 mg/mL BSA, 10 ng/uL poly(dI-dC), 10 min 30 C; details: protein: recombinant; tags: N-terminal His (pET28a); chain copies: 2; label: 32P
[10] = molecular target: T1, HPV-11 E2 (full length); assay: EMSA; 20 C; EMSA: 10 mM HEPES pH 7.9, 50 mM NaCl, 4 mM MgCl2, 10% glycerol, 5 mM DTT, 0.2 mM EDTA, 0.1 mg/mL BSA, 10 ng/uL poly(dI-dC), 10 min 30 C; details: protein: recombinant; tags: N-terminal His (pET28a); chain copies: 2; label: 32P
[11] = molecular target: T1, HPV-11 E2 (full length); assay: EMSA; flank experiment WT; EMSA: 10 mM HEPES pH 7.9, 50 mM NaCl, 4 mM MgCl2, 10% glycerol, 5 mM DTT, 0.2 mM EDTA, 0.1 mg/mL BSA, 10 ng/uL poly(dI-dC), 10 min 30 C; details: protein: recombinant; tags: N-terminal His (pET28a); chain copies: 2; label: 32P
[12] = molecular target: T1, HPV-11 E2 (full length); assay: EMSA; 10 C; EMSA: 10 mM HEPES pH 7.9, 50 mM NaCl, 4 mM MgCl2, 10% glycerol, 5 mM DTT, 0.2 mM EDTA, 0.1 mg/mL BSA, 10 ng/uL poly(dI-dC), 10 min 30 C; details: protein: recombinant; tags: N-terminal His (pET28a); chain copies: 2; label: 32P
[13] = molecular target: T2, recombinant full-length HPV type 11 E2 protein (human papillomavirus type 11), P04015; assay: dynamic light scattering; purified E2 in solution at low (≤0.1 mg/mL) protein concentration; solvent set as 10% glycerol; three separate measurements; monomer to dimer; details: remark: other sources report otherwise
T2 chain: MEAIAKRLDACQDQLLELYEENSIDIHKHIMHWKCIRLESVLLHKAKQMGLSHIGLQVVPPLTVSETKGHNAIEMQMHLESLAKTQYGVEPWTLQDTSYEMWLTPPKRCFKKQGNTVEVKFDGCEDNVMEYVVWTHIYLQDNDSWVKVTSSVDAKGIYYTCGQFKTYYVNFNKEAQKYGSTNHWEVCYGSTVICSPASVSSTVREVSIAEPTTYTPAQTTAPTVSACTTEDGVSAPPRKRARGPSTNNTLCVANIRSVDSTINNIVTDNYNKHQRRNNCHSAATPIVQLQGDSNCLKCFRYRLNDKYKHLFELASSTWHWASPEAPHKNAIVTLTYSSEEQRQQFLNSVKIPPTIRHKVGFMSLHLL

[14] = molecular target: T1, HPV-11 E2 (full length); assay: EMSA; single complex C1; EMSA: 10 mM HEPES pH 7.9, 50 mM NaCl, 4 mM MgCl2, 10% glycerol, 5 mM DTT, 0.2 mM EDTA, 0.1 mg/mL BSA, 10 ng/uL poly(dI-dC), 10 min 30 C; details: protein: recombinant; tags: N-terminal His (pET28a); chain copies: 2; label: 32P
[15] = molecular target: T1, HPV-11 E2 (full length); assay: EMSA; C1, C2 and C3 complexes; EMSA: 10 mM HEPES pH 7.9, 50 mM NaCl, 4 mM MgCl2, 10% glycerol, 5 mM DTT, 0.2 mM EDTA, 0.1 mg/mL BSA, 10 ng/uL poly(dI-dC), 10 min 30 C; details: protein: recombinant; tags: N-terminal His (pET28a); chain copies: 2; label: 32P

B1: BS4 (dsDNA)
DNA 1: CTTGCAACCGTTTTCGGTTGCCCT
DNA 2: AGGGCAACCGAAAACGGTTGCAAG
- Kd [1]: 4.4 ± 0.4 nM
- Kd [2]: 4.8 ± 0.7 nM
- Kd [3]: 4.6 ± 0.4 nM

B2: BS2 (dsDNA)
DNA 1: GGAGGGACCGAAAACGGTTCAACC
DNA 2: GGTTGAACCGTTTTCGGTCCCTCC
- Kd [2]: 7.8 ± 0.7 nM
- Kd [3]: 6 ± 0.6 nM

B3: BS1+2+E1BS (124 bp) (dsDNA)
DNA 1: GTAACCCACACCCTACATATTTCCTTCTTATACTTAATAACAATCTTATTTAAAAAAGAGGAGGGACCGAAAACGGTTCAACCGAAAACGGTTATATATAAACCAGCCCAAAAAATTAGCAGA
DNA 2: TCTGCTAATTTTTTGGGCTGGTTTATATATAACCGTTTTCGGTTGAACCGTTTTCGGTCCCTCCTCTTTTTTAAATAAGATTGTTATTAAGTATAAGAAGGAAATATGTAGGGTGTGGGTTAC
- binding result [4]: binds

B4: BS1 3' mutant (dsDNA)
DNA 1: GGTTCAACCGAAAACGGTTACCCA
DNA 2: TGGGTAACCGTTTTCGGTTGAACC
- Kd [5]: 7.6 ± 0.6 nM

B5: Non-specific (dsDNA)
DNA 1: TGGCGGACCCCACCCAGCCCCACGCGCA
DNA 2: TGCGCGTGGGGCTGGGTGGGGTCCGCCA
- binding result [6]: no binding

B6: BS3 (dsDNA)
DNA 1: CCTGCAACCGGTTTCGGTTACCCA
DNA 2: TGGGTAACCGAAACCGGTTGCAGG
- Kd [2]: 10.2 ± 1.7 nM

B7: BS1 (dsDNA)
DNA 1: GGTTCAACCGAAAACGGTTATATG
DNA 2: CATATAACCGTTTTCGGTTGAACC
- Kd [2]: 6.2 ± 0.9 nM
- Kd [7]: 7.3 ± 0.7 nM
- Kd [8]: 5.3 ± 0.4 nM
- Kd [9]: 5.7 ± 1.1 nM
- Kd [10]: 6.2 ± 1.4 nM
- Kd [11]: 6 ± 0.7 nM
- Kd [12]: 5.5 ± 1.5 nM
- Kd [3]: 6.2 ± 1.4 nM

B8: BS1 5'+3' mutant (dsDNA)
DNA 1: CCTGCAACCGAAAACGGTTACCCA
DNA 2: TGGGTAACCGTTTTCGGTTGCAGG
- Kd [5]: 7.7 ± 1.7 nM

B9: recombinant full-length HPV type 11 E2 protein, P04015 1-367 (natural protein)
chain: T2 chain
- stoichiometry N [13]: 2

B10: BS4 with GTTT spacer (dsDNA)
DNA 1: CTTGCAACCGGTTTCGGTTGCCCT
DNA 2: AGGGCAACCGAAACCGGTTGCAAG
- Kd [5]: 6.4 ± 0.6 nM

B11: BS1 5' mutant (dsDNA)
DNA 1: CCTGCAACCGAAAACGGTTATATG
DNA 2: CATATAACCGTTTTCGGTTGCAGG
- Kd [5]: 6.4 ± 0.6 nM

B12: BS1 (50 bp) (dsDNA)
DNA 1: GGAGGGATTGAAAACTTTTCAACCGAAAACGGTTATATATAAACCAGCCC
DNA 2: GGGCTGGTTTATATATAACCGTTTTCGGTTGAAAAGTTTTCAATCCCTCC
- Kd [14]: 5.3 ± 0.6 nM

B13: BS1+2 (50 bp) (dsDNA)
DNA 1: B12 DNA 1 with A3C, T8C, T9C, T16G, T17G
DNA 2: B12 DNA 2 with A34C, A35C, A42G, A43G, T48G
- Kd [15]: 4.2 ± 0.3 nM
